According to US7618787B2, “Method of screening compound capable of accelerating or inhibiting apoptosis, apoptosis accelarator and apoptosis inhibitor” (Hisamitsu Pharmaceutical Co., Inc., priority 2004, dated 2009):

T1: p73 (Homo sapiens, UniProt O15350)
T1 construct: expressed in transfected cells; host or cells: COS7
T1 sequence (O15350 1-636): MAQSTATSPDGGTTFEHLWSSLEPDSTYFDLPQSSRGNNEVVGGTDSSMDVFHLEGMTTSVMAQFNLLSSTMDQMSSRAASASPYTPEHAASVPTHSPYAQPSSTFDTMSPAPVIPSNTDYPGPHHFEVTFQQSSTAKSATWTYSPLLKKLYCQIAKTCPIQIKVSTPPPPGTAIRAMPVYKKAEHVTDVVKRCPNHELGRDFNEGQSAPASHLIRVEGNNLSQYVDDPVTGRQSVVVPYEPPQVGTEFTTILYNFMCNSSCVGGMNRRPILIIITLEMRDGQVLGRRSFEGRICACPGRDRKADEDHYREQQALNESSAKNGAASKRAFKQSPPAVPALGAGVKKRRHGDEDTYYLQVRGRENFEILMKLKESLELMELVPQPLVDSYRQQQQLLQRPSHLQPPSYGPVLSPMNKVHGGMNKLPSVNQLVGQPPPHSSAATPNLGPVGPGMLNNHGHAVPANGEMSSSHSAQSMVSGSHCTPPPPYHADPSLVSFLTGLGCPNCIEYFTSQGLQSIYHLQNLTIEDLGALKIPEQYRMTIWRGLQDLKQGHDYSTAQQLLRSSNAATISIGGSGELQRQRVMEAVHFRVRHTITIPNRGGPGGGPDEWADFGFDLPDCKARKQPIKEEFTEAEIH


How the values were obtained:
H1299 cells [1] = experiment: p53-dependent apoptosis (DAPI staining, abnormal nuclei); type: cell-based, human; conditions: H1299, cotransfection with p53, 48 hours (FIG. 36)
Method: (§1) To examine the influence of UFD2a on p73-dependent apoptosis, the following experiment was performed. p53-deficient H1299 cells were transiently cotransfected with the given combinations (HA-p73α, p53, and FLAG-UFD2a) of expression plasmids. After 48 hours of the transfection, the cells were fixed at room temperature for 30 minutes in 3.7% formaldehyde, then permeabilized at room temperature for 5 minutes with 0.2% Triton X-100, and blocked for 1 hour with 3% BSA. The cells were washed three times with 1×PBS and stained at room temperature for 20 minutes with DAPI (4′,6-diamidino-2-phenylindole; 1 μg/mL). Of the cells transfected with GFP, cells having abnormal nuclei were counted under a microscope.

p53 = experiment: Amount of endogenous p53 in COS7 cells (immunoblot); type: cell-based, African green monkey; conditions: COS7, cisplatin 20 μg/mL for 24 hours (FIG. 35)
Method: To examine the influence of UFD2a on endogenous p73, the following experiment was performed. COS7 cells were transfected or untransfected with a FLAG-UFD2a expression plasmid. After 24 hours of the transfection, the cells were exposed to cisplatin (final concentration: 20 μg/mL) for 24 hours or left untreated. Whole cell lysates were prepared from the transfected cells and analyzed for p73α, p53, and UFD2a expression by immunoblot. Actin was utilized as a control for addition.

H1299 cells [2] = experiment: p73-dependent apoptosis (DAPI staining, abnormal nuclei); type: cell-based, human; conditions: H1299, cotransfection with HA-p73α, 48 hours (FIG. 36)
Method: as §1

p73 [3] = target: T1, p73; experiment: Co-immunoprecipitation with p73 in transfected COS7 cells; type: binding; conditions: COS7, co-immunoprecipitation (FIG. 10, FIG. 28)
Method: Whole cell lysates were centrifuged at 15000 rpm for 15 minutes to remove cell debris. The obtained supernatant was pretreated at 4° C. for 30 minutes with protein G-Sepharose (50% slurry, 30 μL; Amersham Pharmacia Biotech). After centrifugation, the supernatant was incubated at 4° C. for 2 hours with an anti-HA polyclonal (Medical and Biological Laboratories) or anti-FLAG monoclonal antibody. The immunocomplexes were precipitated at 4° C. for 30 minutes with protein G-Sepharose beads. After collection by brief centrifugation, the immunoprecipitates were washed three times with lysis buffer, then suspended in 30 μL of 2×Laemmli SDS sample buffer, and treated at 100° C. for 5 minutes. The supernatant was loaded onto 10% SDS-PAGE and analyzed by immunoblot as described above.
To investigate whether IKK-α interacted with p73 in cultured mammal cells, whole cell lysates were prepared from transfected COS7 cells, then immunoprecipitated with an anti-FLAG or anti-HA antibody, and analyzed by immunoblot using an anti-p73 or anti-FLAG antibody, respectively. […] Likewise, HA-p73β was co-immunoprecipitated with FLAG-IKK-α (data not shown). […] To identify determinants of p73 participating in the interaction with IKK-α, several deletion mutants of p73 fused to GST were prepared and examined for their abilities to bind to FLAG-IKK-α by in-vitro pull-down assay. These mutants were designed on the basis of the functional domains of p73 including transactivation, DNA-binding, oligomerization, and SAM domains (FIG. 12).

U2OS or H1299 cells = experiment: Apoptosis induced by cisplatin in transfected cells; type: cell-based, human; conditions: U2OS and H1299 (FIGS. 31 and 33)
endogenous p53 = experiment: Amount of endogenous p53 in cisplatin-treated U2OS cells (immunoblot); type: cell-based, human; conditions: cisplatin 24 hours (FIG. 30)
p73 [4] = target: T1, p73; experiment: p73 protein level (stabilization) by immunoblot in cotransfected COS7 cells; type: cell-based; conditions: COS7 cotransfection (FIG. 14, 15, 29)
Method: Cells were transiently transfected with a total of 2 μg of expression plasmids. After 48 hours of the transfection, the cells were washed with ice-cold PBS and suspended in lysis buffer (pH 8.0; which contained 25 mM Tris-Cl, 137 mM sodium chloride, 1% Triton X-100, 1 mM phenylmethylsulfonyl fluoride (PMSF), and protease inhibitor mix (Roche Molecular Biochemicals)), followed by brief sonication. After centrifugation at 15000 rpm for 10 minutes, the supernatant was collected and assayed for protein concentrations by the Bradford assay (Bio-Rad). Equal amounts of lysates (protein amount: 50 μg) from the whole cells were denatured by boiling in Laemmli SDS-sample buffer, then separated on 10% SDS-polyacrylamide gel (SDS-PAGE), and transferred at room temperature for 1 hour to polyvinylidene difluoride (PVDF) membranes (Immobilon-P; Millipore) in Tris-glycine buffer containing 10% methanol. The membranes were blocked at room temperature for 1 hour with Tris-buffered saline (TBS-T) containing 5% skim milk and 0.1% Tween 20.
As previously reported, some protein kinases (e.g., c-Abl and PKCδ) that interact with p73 can stabilize p73. To confirm whether IKK-α influenced the stabilization of p73, COS7 cells were transfected with a constant amount of HA-p73α expression plasmid together with or without varying amounts of IKK-α expression plasmids and examined for HA-p73α protein levels. […] Next, whether IKK-β influenced the stabilization of p73 and p53 was investigated by transient transfection.

| Molecule | p53-dependent apoptosis (H1299 cells [1]) | amount of endogenous p53 (p53) | number of apoptotic cells, p73-dependent (H1299 cells [2]) | complex formation with HA-p73α (p73 [3]) | apoptosis induced by cisplatin (U2OS or H1299 cells) | amount of endogenous p53 (endogenous p53) | amount of HA-p73α (p73 [4]) |
| --- | --- | --- | --- | --- | --- | --- | --- |
| UFD2a: UFD2a protein, SEQ ID NO: 26, U-box ubiquitin protein ligase; apoptosis inhibitor (protein, listed as Homo sapiens) MEELSADEIRRRRLARLAGGQTSQPTTPLTSPQRENPPGPPIAASAPGPSQSLGLNVHNMTPATSPIGASGVAHRSQSSEGVSSLSSSPSNSLETQSQSLSRSQSMDIDGVSCEKSMSQVDVDSGIENMEVDENDRREKRSLSDKEPSSGPEVSEEQALQLVCKIFRVSWKDRDRDVIFLSSLSAQFKQNPKEVFSDFKDLIGQILMEVLMMSTQTRDENPFASLTATSQPIAAAARSPDRNLLLNTGSNPGTSPMFCSVASFGASSLSSLGASGGASNWDSYSDHFTIETCKETDMLNYLIECFDRVGIEEKKAPKMCSQPAVSQLLSNIRSQCISHTALVLQGSLTQPRSLQQPSFLVPYMLCRNLPYGFIQELVRTTHQDEEVFKQIFIPILQGLALAAKECSLDSDYFKYPLMALGELCETKFGKTHPVCNLVASLRLWLPKSLSPGCGRELQRLSYLGAFFSFSVFAEDDVKVVEKYFSGPAITLENTRVVSQSLQHYLELGRQELFKILHSILLNGETREAALSYMAAVVNANMKKAQMQTDDRLVSTDGFMLNFLWVLQQLSTKIKLETVDPTYIFHPRCRITLPNDETRVNATMEDVNDWLTELYGDQPPFSEPKFPTECFFLTLHAHHLSILPSCRRYIRRLRAIRELNRTVEDLKNNESQWKDSPLATRHREMLKRCKTQLKKLVRCKACADAGLLDESFLRRCLNFYGLLIQLLLRILDPAYPDITLPLNSDVPKVFAALPEFYVEDVAEFLFFIVQYSPQALYEPCTQDIVMFLVVMLCNQNYIRNPYLVAKLVEVMFMTNPAVQPRTQKFFEMIENHPLSTKLLVPSLMKFYTDVEHTGATSEFYDKFTIRYHISTIFKSLWQNIAHHGTFMEEFNSGKQFVRYINMLINDTTFLLDESLESLKRIHEVQEEMKNKEQWDQLPRDQQQARQSQLAQDERVSRSYLALATETVDMFHILTKQVQKPFLRPELGPRLAAMLNFNLQQLCGPKCRDLKVENPEKYGFEPKKLLDQLTDIYLQLDCARFAKAIADDQRSYSKELFEEVISKMRKAGIKSTIAIEKFKLLAEKVEEIVAKNARAEIDYSDAPDEFRDPLMDTLMTDPVRLPSGTIMDRSIILRHLLNSPTDPFNRQTLTESMLEPVPELKEQIQAWMREKQNSDH | could not suppress p53-dependent apoptosis | no influence on the amount of endogenous p53 | decreased the number of apoptotic cells |  |  |  |  |
| IKK-α (K44A): IKK-α with 44th lysine substituted by alanine, SEQ ID NO: 25, lacking kinase activity; apoptosis inhibitor (protein, IKK-alpha(K44A)) MERPPGLRPGAGGPWEMRERLGTGGFGNVCLYQHRELDLKIAIASCRLELSTKNRERWCHEIQIMKKLNHANVVKACDVPEELNILIHDVPLLAMEYCSGGDLRKLLNKPENCCGLKESQILSLLSDIGSGIRYLHENKIIHRDLKPENIVLQDVGGKIIHKIIDLGYAKDVDQGSLCTSFVGTLQYLAPELFENKPYTATVDYWSFGTMVFECIAGYRPFLHHLQPFTWHEKIKKKDPKCIFACEEMSGEVRFSSHLPQPNSLCSLIVEPMENWLQLMLNWDPQQRGGPVDLTLKQPRCFVLMDHILNLKIVHILNMTSAKIISFLLPPDESLHSLQSRIERETGINTGSQELLSETGISLDPRKPASQCVLDGVRGCDSYMVYLFDKSKTVYEGPFASRSLSDCVNYIVQDSKIQLPIIQLRKVWAEAVHYVSGLKEDYSRLFQGQRAAMLSLLRYNANLTKMKNTLISASQQLKAKLEFFHKSIQLDLERYSEQMTYGISSEKMLKAWKEMEEKAIHYAEVGVIGYLEDQIMSLHAEIMELQKSPYGRRQGDLMESLEQRAIDLYKQLKHRPSDHSYSDSTEMVKIIVHTVQSQDRVLKELFGHLSKLLGCKQKIIDLLPKVEVALSNIKEADNTVMFMQGKRQKEIWHLLKIACTQSSARSLVGSSLEGAVTPQTSAWLPPTSAEHDHSLSCVVTPQDGETSAQMIEENLNCLGHLSTIIHEANEEQGNSMMNLDWSWLTE |  |  |  | maintained the ability to form complexes with p73α | remarkably inhibited | no remarkable effect on the amount of endogenous p53 | almost no effect on the intracellular level of exogenously expressed HA-p73α |
